The data set deals with T1, EGFP-PABPN1-10A-ΔCT (Homo sapiens, UniProt Q86U42 1-254).
T1 sequence: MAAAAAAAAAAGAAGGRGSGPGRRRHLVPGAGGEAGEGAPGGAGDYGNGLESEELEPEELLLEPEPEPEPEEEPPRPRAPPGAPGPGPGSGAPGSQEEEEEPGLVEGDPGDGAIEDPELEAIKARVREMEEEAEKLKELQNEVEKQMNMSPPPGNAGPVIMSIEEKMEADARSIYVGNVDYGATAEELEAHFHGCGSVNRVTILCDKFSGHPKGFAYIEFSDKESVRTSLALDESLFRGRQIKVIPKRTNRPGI
The data set can be described thus: EMSA; 2 nM dA50, 0-5 uM protein; 50 mM Tris-HCl, 150 mM NaCl, 2 mM MgCl2, pH 7.5, 30 min at room temperature; 6% native gel. To be noted: protein: recombinant; tags: N-terminal EGFP, C-terminal His; label: 5'-Cy5; single-stranded. On the technique in general: In EMSA bound probe runs differently from free probe, usually more slowly.

Consider one molecule from publication PMC10403730, “PABPN1 aggregation is driven by Ala expansion and poly(A)-RNA binding, leading to CFIm25 sequestration that impairs alternative polyadenylation”.

For AAAAAAAAAAAAAAAAAAAAAAAAAAAAAAAAAAAAAAAAAAAAAAAAAA (ssDNA) [Cy5-dA50], the binding result is reported as “binds”.
